Data on one variant can be found in IntAct's records for PubMed 19787799.

Sequences and labels used below:
B1: Protein ERGIC-53 (Homo sapiens), P49257 (parent)
chain: MAGSRQRGLRARVRPLFCALLLSLGRFVRGDGVGGDPAVALPHRRFEYKYSFKGPHLVQSDGTVPFWAHAGNAIPSSDQIRVAPSLKSQRGSVWTKTKAAFENWEVEVTFRVTGRGRIGADGLAIWYAENQGLEGPVFGSADLWNGVGIFFDSFDNDGKKNNPAIVIIGNNGQIHYDHQNDGASQALASCQRDFRNKPYPVRAKITYYQNTLTVMINNGFTPDKNDYEFCAKVENMIIPAQGHFGISAATGGLADDHDVLSFLTFQLTEPGKEPPTPDKEISEKEKEKYQEEFEHFQQELDKKKEEFQKGHPDLQGQPAEEIFESVGDRELRQVFEGQNRIHLEIKQLNRQLDMILDEQRRYVSSLTEEISKRGAGMPGQHGQITQQELDTVVKTQHEILRQVNEMKNSMSETVRLVSGMQHPGSAGGVYETTQHFIDIKEHLHIVKRDIDNLVQRNMPSNEKPKCPELPPFPSCLSTVHFIIFVVVQTVLFIGYIMYRSQQEAAAKKFF
partner: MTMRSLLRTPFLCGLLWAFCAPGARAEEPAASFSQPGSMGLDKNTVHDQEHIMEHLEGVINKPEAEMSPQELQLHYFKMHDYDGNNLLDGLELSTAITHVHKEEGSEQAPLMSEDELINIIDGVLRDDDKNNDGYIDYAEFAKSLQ

Variants of B1 are the subject of the assay. Conditions: with mcfd2_human MCFD2, Q8NI22.
In the case of W67S, the “effect of a mutation on the interaction” value was “disrupting interaction strength”.
